Consider five molecules from paper PMC11193732 (Scientific Reports, 2024).

In assay [1] the target is T1, 6xHis-tagged recombinant SARS-CoV-2 (2019-nCoV) spike protein S1 + S2 extracellular domain (Severe acute respiratory syndrome …, UniProt P0DTC2).
T1 construct: SARS-CoV-2 (2019-nCoV) spike protein, S1 + S2 extracellular domain; lacks the cytoplasmic region; retains the S1/S2 cleavage regions; No catalogue number or limits are printed; also called recombinant S1 + S2; recombinant spike protein
As to the kind of experiment: ELISA; […] (40 ng/mL, 50 μL) […]. The conditions noted are these: one partner purified. (An ELISA detects its analyte on a solid surface through an enzyme-linked reagent.)

Assay [2] concerns the target T2, spike protein (S1 + S2) of SARS-CoV-2 WT (Wuhan strain) (SARS-CoV-2, Wuhan (WT), UniProt P0DTC2).
T2 construct: uncleaved S1 + S2 spike protein of SARS-CoV-2 WT (Wuhan strain), as made by the virus; also called original Wuhan strain; the coronavirus
As to the kind of experiment: ELISA; wells coated with 1 × 10^5 heat-inactivated virus in PBS; 5G2 mAb added; anti-mouse IgG-F(ab')2-HRP, A450. The conditions noted are these: one partner purified.

The target in assay [3] is T3, 6xHis-tagged recombinant SARS-CoV-2 (2019-nCoV) spike S2 extracellular domain (SARS-CoV-2, Wuhan (2019-nCoV), UniProt P0DTC2).
T3 construct: SARS-CoV-2 (2019-nCoV) spike protein, S2 extracellular domain; lacks the cytoplasmic region; No catalogue number or limits are printed; also called recombinant S2; S2 subunit of the recombinant spike protein
As to the kind of experiment: western blot; recombinant spike proteins separated by SDS-PAGE on nitrocellulose; 5G2 mAb 0.2 μg/mL, RT 1 h; anti-mouse IgG-F(ab')2-HRP. The conditions noted are these: both partners purified.

Assay [4] has as its target T4, SARS-CoV-2 spike 1099-1112 peptide (GTH peptide) (Severe acute respiratory syndrome …).
T4 construct: SARS-CoV-2 spike protein, residues 1099-1112, between HR1 and HR2 of the S2 domain
T4 chain: GTHWFVTQRNFYEP
As to the kind of experiment: SPR. The conditions noted are these: both partners purified.

The target of assay [5] is S2 subunit of the SARS-CoV-2 WT spike protein in infected Vero cells (SARS-CoV-2, Wuhan (WT), UniProt P0DTC2). As to the kind of experiment: western blot. The conditions noted are these: one partner purified. A general note: Immunoblotting shows a protein as a band on a membrane.
The target of assay [6] is T1, 6xHis-tagged recombinant SARS-CoV-2 …. As to the kind of experiment: western blot; recombinant spike proteins separated by SDS-PAGE on nitrocellulose; MBP-sc5G2-6xHis 0.8 μg/mL, RT 1 h; anti-MBP antibody and anti-mouse IgG-F(ab')2-HRP. The conditions noted are these: both partners purified.
The target in assay [7] is T3, 6xHis-tagged recombinant SARS-CoV-2 …. The assay is described as above. The conditions noted are these: both partners purified.
The target in assay [8] is T2, spike protein (S1 + S2) of SARS-CoV-2 …. As to the kind of experiment: western blot. The conditions noted are these: one partner purified.
Assay [9] concerns the target T1, 6xHis-tagged recombinant SARS-CoV-2 …. As to the kind of experiment: western blot. The conditions noted are these: one partner purified.
For assay [10], the target named is T3, 6xHis-tagged recombinant SARS-CoV-2 …. As to the kind of experiment: western blot. The conditions noted are these: one partner purified.
The target of assay [11] is T5, recombinant S2 subunit of the spike protein without 6xHis (SARS-CoV-2, Wuhan (WT), UniProt P0DTC2).
T5 construct: also called r-S2; recombinant S2 without 6xHis
As to the kind of experiment: western blot.

B1: 5G2 monoclonal antibody (antibody, V domains shown)
VH: QIQLVQSGPELKKPGATVKISCKASGYTFTNYGMHWLKQTPGKVLKWMGLINTYTGEPKYADDFKGRFAFSLETSASTAYLQINNLRSEDTATYFCARKGLGLRPPMDSWGQGTSVTVSS
VL: QIVLSQSPAILSASPGEKVTMTCRASSSVNYMHWCQQKPGSSPKPLIHGTSNLASGVPGRFSGSGSGTSYSLTISRVEAEDAATYYCHQWNSYPLTFGAGTRLEL
notes: also called 5G2 mAb; mAb 5G2
Broadly, the Kd is the equilibrium constant for the complex coming apart. Read a high Kd as a looser complex. For the molecule B1, the binding result in assay [1], in [2], in assay [3] and in assay [5] was “binds” each time. The Kd in [4] came to 0.11 nM.

B2: MBP-sc5G2-6xHis produced by HEK293FT cells (scFv, V domains shown)
VH: QIQLVQSGPELKKPGATVKISCKASGYTFTNYGMHWLKQTPGKVLKWMGLINTYTGEPKYADDFKGRFAFSLETSASTAYLQINNLRSEDTATYFCARKGLGLRPPMDSWGQGTSVTVSS
VL: QIVLSQSPAILSASPGEKVTMTCRASSSVNYMHWCQQKPGSSPKPLIHGTSNLASGVPGRFSGSGSGTSYSLTISRVEAEDAATYYCHQWNSYPLTFGAGTRLEL
notes: as the heavy chain variable region of m1; as the light chain variable region of m1; The MBP cDNA came from the pMAL-p2 vector; not shown: MBP, N-terminal, kept; 6xHis, C-terminal, kept
In the case of B2, the binding result in [6], in [7] and in [8] was “binds” throughout.

B3: recombinant 5G2 (cloned heavy and light chains fused to mouse IgG constant γ1 and κ chains) (antibody, V domains shown)
VH: QIQLVQSGPELKKPGATVKISCKASGYTFTNYGMHWLKQTPGKVLKWMGLINTYTGEPKYADDFKGRFAFSLETSASTAYLQINNLRSEDTATYFCARKGLGLRPPMDSWGQGTSVTVSS
VL: QIVLSQSPAILSASPGEKVTMTCRASSSVNYMHWCQQKPGSSPKPLIHGTSNLASGVPGRFSGSGSGTSYSLTISRVEAEDAATYYCHQWNSYPLTFGAGTRLEL
notes: as the heavy chain variable region of m1; mouse IgG constant γ1 chain; as the light chain variable region of m1; mouse immunoglobulin constant κ chain; Mouse IgG1 kappa; also called recombinant heavy and light chains of 5G2; 293FT + cDNA
As to B3, the binding result in assay [9] and in assay [10] was “binds” in each case.

B4: sc5G2-6xHis produced by E. coli (refolded) (scFv, V domains shown)
VH: QIQLVQSGPELKKPGATVKISCKASGYTFTNYGMHWLKQTPGKVLKWMGLINTYTGEPKYADDFKGRFAFSLETSASTAYLQINNLRSEDTATYFCARKGLGLRPPMDSWGQGTSVTVSS
VL: QIVLSQSPAILSASPGEKVTMTCRASSSVNYMHWCQQKPGSSPKPLIHGTSNLASGVPGRFSGSGSGTSYSLTISRVEAEDAATYYCHQWNSYPLTFGAGTRLEL
notes: as the heavy chain variable region of m1; as the light chain variable region of m1; also called MBP-free sc5G2
Consider B4, for which the binding result in assay [11] and in assay [8] was “binds” throughout.

B5: MBP-sc5G2-6xHis produced by E. coli (refolded) (scFv, V domains shown)
VH: QIQLVQSGPELKKPGATVKISCKASGYTFTNYGMHWLKQTPGKVLKWMGLINTYTGEPKYADDFKGRFAFSLETSASTAYLQINNLRSEDTATYFCARKGLGLRPPMDSWGQGTSVTVSS
VL: QIVLSQSPAILSASPGEKVTMTCRASSSVNYMHWCQQKPGSSPKPLIHGTSNLASGVPGRFSGSGSGTSYSLTISRVEAEDAATYYCHQWNSYPLTFGAGTRLEL
notes: as the heavy chain variable region of m1; as the light chain variable region of m1; Same cDNA as m3, in pET22b; not shown: MBP, N-terminal, kept; 6xHis, C-terminal, kept
B5: the binding result in assay [6], in [7] and in assay [8] was “binds” throughout.
